Values of other authors in publication PMC10999626.

Target: FcRn (Mus musculus) (UniProt Q61559)
Test: BLI

human IgG4, sequence (P01861 whole entry): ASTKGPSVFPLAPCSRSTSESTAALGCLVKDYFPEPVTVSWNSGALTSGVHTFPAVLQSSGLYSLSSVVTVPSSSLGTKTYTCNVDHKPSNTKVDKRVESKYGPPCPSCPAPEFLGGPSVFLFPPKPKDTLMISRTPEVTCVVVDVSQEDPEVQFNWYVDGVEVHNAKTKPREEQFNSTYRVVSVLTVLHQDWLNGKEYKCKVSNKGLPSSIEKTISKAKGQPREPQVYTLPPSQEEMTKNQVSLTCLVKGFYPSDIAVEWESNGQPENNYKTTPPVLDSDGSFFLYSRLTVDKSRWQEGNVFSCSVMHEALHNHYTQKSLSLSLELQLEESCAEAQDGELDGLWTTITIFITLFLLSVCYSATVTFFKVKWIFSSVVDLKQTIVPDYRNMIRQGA
FcRn (Mus musculus), sequence (Q61559 22-365): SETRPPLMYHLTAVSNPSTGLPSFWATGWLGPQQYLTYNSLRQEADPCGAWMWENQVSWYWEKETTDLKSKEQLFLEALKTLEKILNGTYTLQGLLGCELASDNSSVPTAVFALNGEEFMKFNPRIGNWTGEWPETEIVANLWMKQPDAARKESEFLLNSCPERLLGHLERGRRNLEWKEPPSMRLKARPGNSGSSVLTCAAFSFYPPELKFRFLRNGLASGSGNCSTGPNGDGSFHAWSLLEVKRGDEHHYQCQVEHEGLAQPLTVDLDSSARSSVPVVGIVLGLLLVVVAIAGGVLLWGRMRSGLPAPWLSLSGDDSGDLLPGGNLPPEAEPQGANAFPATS

## human IgG4 (from UniProt P01861)
  Kd: 6 nM
